In publication PMC5032992:
Substitutions are numbered along the chain they refer to. Names may count otherwise.

B1: rPoAbf (recombinant α‐L‐arabinofuranosidase from Pleurotus ostreatus) (Pleurotus sp. 'Florida') (protein)
chain: QTVSVSATASHPIPTTLWGQMFEDISHSGDGGLYAELLQNRALQQVTPNTAASLNAWSAINGGQISVVADSVPVSNSLPNSLRFTVPAGRTGQVGFANSGFFGMKIVASSTYKGSFFVKFPTASSFTGNLIVGLRTTSGSTIVSQTVPIRGASTSWQQISVSLTPRTTPPSTDNQFFVTIDGAAASGQTINFAMFSLFPPTFKNRANGMRDDIATALAEMKPKFFRFPGGNNLEGQTVPTRWQWNATIGSLLDRPGRAGDWGYINTDGLGLLEYLLFCEDLGMEPIMAVWAGFALGGTSVAQNGLQPYIQQAIDQINFVIGDPATSAPAARRAALGRAQPFKLTYVEIGNEDFFASDTYTYRWPAFVNALRGAFPNLKFIATSNINSPVLSPNPAQWDHHVYQTPTWFAQNSFFYDDMPRNGVTFFEGEYAAISTNPNDIFGSPANGRLTFSTMQSASGEAAYMIGMERNSDIVFAASYAPLLGHVAGSQWTPNLIAFDTGNVYRSASYFVQKLFSTNMGNEYIPSTLPSRTGTAFWGVTRNTATGEIIIKVSNTVAAQANLTFVLPFANVATSGSLQVLTGAATASNSPTTPSALAPATRTITTGKTFTFAAAGFSVNVITIKAS
B2: rPoAbf (recombinant α‐L‐arabinofuranosidase from Pleurotus ostreatus) (Pleurotus sp. 'Florida'; S160G) (protein)
chain: B1 chain with S140G

Key:
purified protein [1] = substrate: O=[N+]([O-])c1ccc(O[C@@H]2O[C@@H](CO)[C@H](O)[C@H]2O)cc1; assay: purified protein; details: pH 5.0, 40 °C, 10 min, 0.1-2.0 mM substrate, 40.0 °C
purified protein [2] = substrate: O=[N+]([O-])c1ccc(O[C@@H]2O[C@H](CO)[C@@H](O)[C@H](O)[C@H]2O)cc1; assay: purified protein; details: citrate phosphate buffer pH 5, 0.1-6 mM substrate

Row | Protein | Km (purified protein [1]) [µM] | kcat (purified protein [1]) | Km (purified protein [2]) [µM] | kcat (purified protein [2]) [s⁻¹]
1 | B1 | 640 ± 110 | 3,010 ± 145 Min^−1 | 4070 ± 150 | 0.183 ± 0.01
2 | B2 | 890 ± 190 | 2,590 ± 165 Min^−1 | 5030 ± 120 | 0.383 ± 0.015
